The source of these data is the supplement of paper PMC9112550, “Optimization of the antimicrobial peptide Bac7 by deep mutational scanning” (BMC Biology, 2022).

For this data set, the system named is Escherichia coli TOP10. Briefly: shrunken log2 fold change of peptide-encoding DNA abundance (4.5 h post-induction vs induction); higher = less antimicrobial activity (less host growth inhibition). The settings on record: time post-induction: 4.5 h; library: site-saturation at positions 5, 18, 19, 20.
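Note: peptides expressed intracellularly from a pBAD plasmid library in pooled LB shake-flask culture, induced with 0.3% L-arabinose, DNA abundance read by NGS, three biological replicates, DESeq2 with apeglm shrinkage.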

As for RRIRLRPPRLPRPRPRPQGEPRP, the “shrunken log2 fold change” value came to 0.125.

In the case of RRIRNRPPRLPRPRPRPINSPRP, the “shrunken log2 fold change” value was -0.208.

With RRIRKRPPRLPRPRPRPNEKPRP, the “shrunken log2 fold change” value was determined as 0.218.

On to RRIRNRPPRLPRPRPRPEHAPRP, for which the “shrunken log2 fold change” value came to 0.0107. For RRIRERPPRLPRPRPRPGREPRP, the “shrunken log2 fold change” value is 0.241.

Turning to RRIRMRPPRLPRPRPRPAEVPRP, the “shrunken log2 fold change” value is 0.411. The figure for RRIRFRPPRLPRPRPRPTEQPRP is -0.0361; for RRIRWRPPRLPRPRPRPMGQPRP it is 0.0149; for RRIRYRPPRLPRPRPRPYMMPRP it is -0.337.

For the sequence RRIRWRPPRLPRPRPRPLKSPRP, the “shrunken log2 fold change” value came out at 0.183. For RRIRMRPPRLPRPRPRPLSCPRP, the “shrunken log2 fold change” value came to 0.163. In the case of RRIRPRPPRLPRPRPRPYFEPRP, the “shrunken log2 fold change” value was -0.633.

As to RRIRVRPPRLPRPRPRPWILPRP, the “shrunken log2 fold change” value was determined as 0.000714.

RRIRLRPPRLPRPRPRPLSAPRP: the “shrunken log2 fold change” value was determined as 0.0846.

Take RRIRIRPPRLPRPRPRPKNPPRP: the “shrunken log2 fold change” value was -0.439.

Take RRIRERPPRLPRPRPRPPMFPRP: the “shrunken log2 fold change” value is -0.203. To RRIRDRPPRLPRPRPRPQCDPRP belongs -0.0921.

RRIRWRPPRLPRPRPRPISYPRP: the “shrunken log2 fold change” value was -0.0222.

For RRIRHRPPRLPRPRPRPKGGPRP, the “shrunken log2 fold change” value was 0.0418. To RRIRGRPPRLPRPRPRPRMKPRP belongs 0.426; to RRIRPRPPRLPRPRPRPRSNPRP, -0.247; to RRIRIRPPRLPRPRPRPNYIPRP, -1.29. Regarding RRIRSRPPRLPRPRPRPVQYPRP, the “shrunken log2 fold change” value was -0.00908. For RRIRRRPPRLPRPRPRPEVDPRP, the “shrunken log2 fold change” value worked out at 0.0409. As for RRIRIRPPRLPRPRPRPLPMPRP, the “shrunken log2 fold change” value is -0.204. With RRIRMRPPRLPRPRPRPCVWPRP, the “shrunken log2 fold change” value was 0.245. RRIRRRPPRLPRPRPRPLPYPRP: the “shrunken log2 fold change” value was -0.0149.

Take RRIRSRPPRLPRPRPRPLECPRP: the “shrunken log2 fold change” value is -0.267. RRIRDRPPRLPRPRPRPPCYPRP: the “shrunken log2 fold change” value is -0.0706. In the case of RRIRGRPPRLPRPRPRPVEQPRP, the “shrunken log2 fold change” value worked out at 0.0754. As to RRIRIRPPRLPRPRPRPDDRPRP, the “shrunken log2 fold change” value was 0.0115. On to RRIRMRPPRLPRPRPRPWHIPRP, for which the “shrunken log2 fold change” value is -0.0015. The figure for RRIRDRPPRLPRPRPRPDTLPRP is 0.125; for RRIRFRPPRLPRPRPRPRHWPRP it is 0.437; for RRIRTRPPRLPRPRPRPYDIPRP it is -0.795.

With RRIRTRPPRLPRPRPRPNFNPRP, the “shrunken log2 fold change” value is -0.356. The figure for RRIRQRPPRLPRPRPRPPYMPRP is -0.184; for RRIRVRPPRLPRPRPRPIMWPRP it is 0.03; for RRIRTRPPRLPRPRPRPTNNPRP it is -0.618. In the case of RRIRARPPRLPRPRPRPQNYPRP, the “shrunken log2 fold change” value is -0.1. With RRIRPRPPRLPRPRPRPRRWPRP, the “shrunken log2 fold change” value stood at 0.56. For the sequence RRIRIRPPRLPRPRPRPKPYPRP, the “shrunken log2 fold change” value is -0.24. The figure for RRIRWRPPRLPRPRPRPPQNPRP is 0.91. The figure for RRIRPRPPRLPRPRPRPVPRPRP is 0.531. Consider RRIRPRPPRLPRPRPRPMENPRP, for which the “shrunken log2 fold change” value stood at 0.127. For RRIRKRPPRLPRPRPRPFTTPRP, the “shrunken log2 fold change” value is -0.243. Take RRIRARPPRLPRPRPRPQHYPRP: the “shrunken log2 fold change” value was -0.474.

For RRIRKRPPRLPRPRPRPVIGPRP, the “shrunken log2 fold change” value came to 0.233. For the sequence RRIRGRPPRLPRPRPRPWEIPRP, the “shrunken log2 fold change” value was 0.361. To RRIRERPPRLPRPRPRPKIVPRP belongs -0.0778; to RRIRIRPPRLPRPRPRPRWYPRP, -0.452.

Turning to RRIRCRPPRLPRPRPRPWVGPRP, the “shrunken log2 fold change” value was -0.167. The figure for RRIRIRPPRLPRPRPRPWSEPRP is -0.0763; for RRIRFRPPRLPRPRPRPHRCPRP it is -0.0295; for RRIRGRPPRLPRPRPRPHNNPRP it is -0.215.

Consider RRIRCRPPRLPRPRPRPTYFPRP, for which the “shrunken log2 fold change” value is -0.0696. In the case of RRIRRRPPRLPRPRPRPVLLPRP, the “shrunken log2 fold change” value stood at 0.103. To RRIRFRPPRLPRPRPRPDRLPRP belongs 0.147; to RRIRERPPRLPRPRPRPRYSPRP, -0.182; to RRIRHRPPRLPRPRPRPEVTPRP, 0.05.

On to RRIRVRPPRLPRPRPRPIDTPRP, for which the “shrunken log2 fold change” value was -0.48. With RRIRRRPPRLPRPRPRPHLFPRP, the “shrunken log2 fold change” value worked out at 0.0328.

As to RRIRFRPPRLPRPRPRPPLQPRP, the “shrunken log2 fold change” value worked out at 0.353. The figure for RRIRGRPPRLPRPRPRPCPWPRP is -0.149. Take RRIRHRPPRLPRPRPRPCDDPRP: the “shrunken log2 fold change” value was -0.0661. As for RRIRCRPPRLPRPRPRPWDDPRP, the “shrunken log2 fold change” value came out at 0.0755. For RRIRDRPPRLPRPRPRPVYQPRP, the “shrunken log2 fold change” value was -0.263. For RRIRGRPPRLPRPRPRPVMCPRP, the “shrunken log2 fold change” value is 0.522. To RRIRLRPPRLPRPRPRPKKWPRP belongs 0.11; to RRIRMRPPRLPRPRPRPFFKPRP, -0.116. Take RRIRNRPPRLPRPRPRPYTPPRP: the “shrunken log2 fold change” value was -0.0563. The figure for RRIRARPPRLPRPRPRPSRWPRP is 0.388. The figure for RRIRARPPRLPRPRPRPRSFPRP is 0.202; for RRIRQRPPRLPRPRPRPPAEPRP it is 0.589; for RRIRHRPPRLPRPRPRPPYKPRP it is -0.31. To RRIRWRPPRLPRPRPRPLQWPRP belongs 0.346. RRIRARPPRLPRPRPRPGHSPRP: the “shrunken log2 fold change” value was -0.0933. With RRIRQRPPRLPRPRPRPLAYPRP, the “shrunken log2 fold change” value is -0.0738. Take RRIRVRPPRLPRPRPRPCNVPRP: the “shrunken log2 fold change” value was -0.452. As to RRIRWRPPRLPRPRPRPIDDPRP, the “shrunken log2 fold change” value was -0.152. Take RRIRKRPPRLPRPRPRPWKHPRP: the “shrunken log2 fold change” value was -0.339. The figure for RRIRYRPPRLPRPRPRPHCVPRP is -0.0324. As to RRIRERPPRLPRPRPRPIYSPRP, the “shrunken log2 fold change” value is -0.413. The figure for RRIRPRPPRLPRPRPRPRIYPRP is 0.0335; for RRIRWRPPRLPRPRPRPNMHPRP it is -0.00977. To RRIRFRPPRLPRPRPRPLKTPRP belongs -0.112; to RRIRSRPPRLPRPRPRPTVMPRP, 0.00504; to RRIRHRPPRLPRPRPRPISHPRP, -0.0873. In the case of RRIRHRPPRLPRPRPRPPLVPRP, the “shrunken log2 fold change” value stood at 0.0953. The figure for RRIRYRPPRLPRPRPRPDLIPRP is -0.302. As to RRIRPRPPRLPRPRPRPKMYPRP, the “shrunken log2 fold change” value was -0.938.

Consider RRIRTRPPRLPRPRPRPKFPPRP, for which the “shrunken log2 fold change” value was -0.0959. As for RRIRERPPRLPRPRPRPLSLPRP, the “shrunken log2 fold change” value was -0.371. The figure for RRIRARPPRLPRPRPRPNWHPRP is 0.163; for RRIRRRPPRLPRPRPRPQVDPRP it is 0.237; for RRIRWRPPRLPRPRPRPPHWPRP it is 0.592. On to RRIRFRPPRLPRPRPRPRNKPRP, for which the “shrunken log2 fold change” value is -0.174. With RRIRKRPPRLPRPRPRPRTHPRP, the “shrunken log2 fold change” value came to 0.425.

Consider RRIRNRPPRLPRPRPRPAGLPRP, for which the “shrunken log2 fold change” value was -0.118.

With RRIRMRPPRLPRPRPRPYSVPRP, the “shrunken log2 fold change” value was 0.0409. Turning to RRIRIRPPRLPRPRPRPLQIPRP, the “shrunken log2 fold change” value was -0.165.

On to RRIRFRPPRLPRPRPRPEKPPRP, for which the “shrunken log2 fold change” value is -0.0143. The figure for RRIRTRPPRLPRPRPRPWYKPRP is -0.0134.

As for RRIRKRPPRLPRPRPRPICHPRP, the “shrunken log2 fold change” value came out at 0.132.

Regarding RRIRTRPPRLPRPRPRPSLCPRP, the “shrunken log2 fold change” value was -0.0129. In the case of RRIRARPPRLPRPRPRPEWLPRP, the “shrunken log2 fold change” value was 1.25. To RRIRFRPPRLPRPRPRPSNGPRP belongs -0.238; to RRIRYRPPRLPRPRPRPSFHPRP, -1.01. Turning to RRIRVRPPRLPRPRPRPVDNPRP, the “shrunken log2 fold change” value was -0.663. RRIRKRPPRLPRPRPRPCLYPRP: the “shrunken log2 fold change” value is -0.0745.

With RRIRERPPRLPRPRPRPNTPPRP, the “shrunken log2 fold change” value was determined as 0.0861.

Take RRIRNRPPRLPRPRPRPCRRPRP: the “shrunken log2 fold change” value is -0.103. To RRIRDRPPRLPRPRPRPGIPPRP belongs 0.016; to RRIRVRPPRLPRPRPRPMDLPRP, 0.156. To RRIRDRPPRLPRPRPRPWWVPRP belongs -0.335; to RRIRWRPPRLPRPRPRPTESPRP, 0.189; to RRIRVRPPRLPRPRPRPDWDPRP, 0.0311. With RRIRCRPPRLPRPRPRPCYMPRP, the “shrunken log2 fold change” value was -0.234.

RRIRNRPPRLPRPRPRPRLFPRP: the “shrunken log2 fold change” value came out at 0.0322. To RRIRTRPPRLPRPRPRPEVQPRP belongs 0.0183; to RRIRNRPPRLPRPRPRPQSGPRP, 0.0495. The figure for RRIRTRPPRLPRPRPRPHSDPRP is -0.00801. As for RRIRCRPPRLPRPRPRPHLNPRP, the “shrunken log2 fold change” value is -0.627.

With RRIRSRPPRLPRPRPRPYNDPRP, the “shrunken log2 fold change” value is -0.41. The figure for RRIRPRPPRLPRPRPRPVDTPRP is -0.592.
